Experiments:
[1] = target: CTRP2 (C1q/TNF-related protein 2), C-terminal FLAG- or HA-tagged, full length (mouse) (UniProt Q9D8U4); test: SEC
[2] = target: serum CTRP2 (mouse (endogenous in C57BL/6 serum)) (UniProt Q9D8U4); test: SEC

Chain of serum CTRP2 (Q9D8U4 25-294): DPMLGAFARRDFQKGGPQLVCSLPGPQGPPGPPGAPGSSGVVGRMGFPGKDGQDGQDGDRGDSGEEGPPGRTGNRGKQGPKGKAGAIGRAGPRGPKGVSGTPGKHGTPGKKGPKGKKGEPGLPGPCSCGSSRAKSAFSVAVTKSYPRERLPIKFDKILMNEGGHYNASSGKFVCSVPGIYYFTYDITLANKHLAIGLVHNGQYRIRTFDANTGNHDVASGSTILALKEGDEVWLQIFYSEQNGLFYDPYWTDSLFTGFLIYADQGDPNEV
Chain of CTRP2 (C1q/TNF-related protein 2), C-terminal FLAG- or HA-tagged, full length (Q9D8U4 25-294): as above

Row | stoichiometry N [1] | stoichiometry N [2] | Substance
1 | 3 | – | CTRP2 (C1q/TNF-related protein 2), C-terminal FLAG- or HA-tagged, full length (from UniProt Q9D8U4 25-294) (natural protein)
2 | – | 3 | serum CTRP2 (from UniProt Q9D8U4 25-294) (natural protein)
